# In patent publication US20100255578A1:
# How the values were obtained:
# [1] = molecular target: CH-296, a polypeptide comprising a cell binding domain, a heparin binding domain and a CS-1 domain of fibronectin (Homo sapiens (Human)) (UniProt P02751); experiment: ELISA; CH-296 coated at 25 ug/mL; HRP-labeled FNH3-8, ABTS; blank subtracted
# [2] = molecular target: H296-H271; experiment: ELISA; H296-H271 coated at 5 ug/mL; HRP-labeled FNH3-8, ABTS; blank subtracted
# [3] = molecular target: H271-H296; experiment: ELISA; H271-H296 coated at 10 ug/mL; HRP-labeled FNH3-8, ABTS; blank subtracted
# Chain of H271-H296 (chain, as listed by the source limits assumed): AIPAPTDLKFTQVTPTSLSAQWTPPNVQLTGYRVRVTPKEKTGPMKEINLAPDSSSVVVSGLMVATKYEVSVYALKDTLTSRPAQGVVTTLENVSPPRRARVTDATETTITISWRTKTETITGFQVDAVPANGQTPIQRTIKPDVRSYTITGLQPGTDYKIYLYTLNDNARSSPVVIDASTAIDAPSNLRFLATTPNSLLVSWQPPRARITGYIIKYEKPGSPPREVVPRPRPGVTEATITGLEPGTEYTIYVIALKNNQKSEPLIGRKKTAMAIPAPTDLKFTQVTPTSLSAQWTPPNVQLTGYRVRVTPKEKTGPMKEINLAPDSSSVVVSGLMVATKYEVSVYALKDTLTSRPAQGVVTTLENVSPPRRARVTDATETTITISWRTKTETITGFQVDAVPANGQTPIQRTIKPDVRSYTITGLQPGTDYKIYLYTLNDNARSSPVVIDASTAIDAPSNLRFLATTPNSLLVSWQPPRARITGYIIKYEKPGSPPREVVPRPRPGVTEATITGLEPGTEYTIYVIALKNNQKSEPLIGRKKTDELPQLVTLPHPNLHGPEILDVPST
# [4] = molecular target: H271-H296; experiment: ELISA; H271-H296 coated at 16 ug/mL; HRP-labeled FNH3-8, ABTS; blank subtracted
# [5] = molecular target: H271-H296; experiment: ELISA; H271-H296 coated at 18 ug/mL; HRP-labeled FNH3-8, ABTS; blank subtracted
# [6] = molecular target: H296-H296 (modified fibronectin fragment in which two H-296's are connected); experiment: ELISA as in Example 34; H296-H296 coated at 12.5 ug/mL in PBS; HRP-labeled FNH3-8
# [7] = molecular target: H296-H296-HT; experiment: ELISA; H296-H296-HT coated at 1 ug/mL; HRP-labeled FNH3-8, ABTS; blank subtracted
# Chain of H296-H296-HT (chain, as listed by the source limits assumed): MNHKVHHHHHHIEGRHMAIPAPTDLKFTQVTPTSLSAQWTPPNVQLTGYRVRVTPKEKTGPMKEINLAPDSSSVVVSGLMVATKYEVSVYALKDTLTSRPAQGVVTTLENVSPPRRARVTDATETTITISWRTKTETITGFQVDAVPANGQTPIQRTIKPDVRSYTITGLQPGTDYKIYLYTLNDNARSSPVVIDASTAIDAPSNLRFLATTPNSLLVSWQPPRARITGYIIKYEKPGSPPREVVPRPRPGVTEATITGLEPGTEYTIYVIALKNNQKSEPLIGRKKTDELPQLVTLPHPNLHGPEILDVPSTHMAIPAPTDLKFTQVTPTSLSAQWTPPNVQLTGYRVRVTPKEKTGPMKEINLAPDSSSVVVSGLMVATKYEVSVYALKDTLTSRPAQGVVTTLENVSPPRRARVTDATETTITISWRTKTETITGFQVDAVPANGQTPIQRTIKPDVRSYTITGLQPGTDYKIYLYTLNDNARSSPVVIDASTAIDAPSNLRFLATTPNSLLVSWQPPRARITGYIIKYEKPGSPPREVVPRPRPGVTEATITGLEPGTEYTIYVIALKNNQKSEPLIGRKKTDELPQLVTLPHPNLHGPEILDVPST
# [8] = molecular target: H296-H296-HT; experiment: ELISA; H296-H296-HT coated at 2 ug/mL; HRP-labeled FNH3-8, ABTS; blank subtracted
# [9] = molecular target: H296-H296-HT; experiment: ELISA; H296-H296-HT coated at 25 ug/mL; HRP-labeled FNH3-8, ABTS; blank subtracted
# [10] = molecular target: H296-H296-H296-HT; experiment: ELISA; H296-H296-H296-HT coated at 2 ug/mL; HRP-labeled FNH3-8, ABTS; blank subtracted
# Chain of H296-H296-H296-HT (chain, as listed by the source limits assumed): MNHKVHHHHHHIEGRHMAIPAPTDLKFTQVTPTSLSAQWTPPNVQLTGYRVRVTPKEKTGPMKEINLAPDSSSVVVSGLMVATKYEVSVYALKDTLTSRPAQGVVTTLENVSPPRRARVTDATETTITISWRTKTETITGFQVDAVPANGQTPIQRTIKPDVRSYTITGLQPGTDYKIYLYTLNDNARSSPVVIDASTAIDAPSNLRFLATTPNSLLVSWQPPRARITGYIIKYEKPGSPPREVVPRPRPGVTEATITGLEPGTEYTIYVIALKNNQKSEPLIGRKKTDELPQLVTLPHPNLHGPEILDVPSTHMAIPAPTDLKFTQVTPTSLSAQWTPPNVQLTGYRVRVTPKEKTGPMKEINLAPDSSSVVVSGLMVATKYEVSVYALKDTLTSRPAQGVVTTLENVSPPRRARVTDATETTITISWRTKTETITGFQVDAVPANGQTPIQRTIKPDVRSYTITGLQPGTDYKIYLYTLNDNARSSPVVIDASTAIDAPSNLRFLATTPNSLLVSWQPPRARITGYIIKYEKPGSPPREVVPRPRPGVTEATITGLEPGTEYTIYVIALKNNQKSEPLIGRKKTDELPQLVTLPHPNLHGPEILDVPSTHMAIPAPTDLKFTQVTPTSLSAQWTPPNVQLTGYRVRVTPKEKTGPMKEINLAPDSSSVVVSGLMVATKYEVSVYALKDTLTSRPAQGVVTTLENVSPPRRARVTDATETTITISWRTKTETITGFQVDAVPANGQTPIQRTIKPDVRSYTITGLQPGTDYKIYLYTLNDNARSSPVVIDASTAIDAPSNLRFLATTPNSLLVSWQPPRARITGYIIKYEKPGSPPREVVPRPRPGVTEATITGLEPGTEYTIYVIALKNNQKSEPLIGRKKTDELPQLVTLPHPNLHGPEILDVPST
# [11] = molecular target: H296-H296-H296-HT; experiment: ELISA; H296-H296-H296-HT coated at 3 ug/mL; HRP-labeled FNH3-8, ABTS; blank subtracted
# [12] = molecular target: H296-H296-H296-HT; experiment: ELISA; H296-H296-H296-HT coated at 4 ug/mL; HRP-labeled FNH3-8, ABTS; blank subtracted
# [13] = molecular target: H296-H296-H296-HT; experiment: ELISA; H296-H296-H296-HT coated at 10 ug/mL; HRP-labeled FNH3-8, ABTS; blank subtracted
# [14] = molecular target: H296-H296-H296-HT; experiment: ELISA; H296-H296-H296-HT coated at 25 ug/mL; HRP-labeled FNH3-8, ABTS; blank subtracted
# [15] = molecular target: H-296, a polypeptide comprising a heparin binding domain and a CS-1 domain of fibronectin (Homo sapiens (Human)) (UniProt P02751); experiment: ELISA; H-296 coated at 25 ug/mL in 0.2 M acetate buffer pH 3.8; HRP-labeled FNH3-8, ABTS
# [16] = molecular target: H-296, a polypeptide comprising a heparin binding domain and a CS-1 domain of fibronectin (Homo sapiens (Human)) (UniProt P02751); experiment: ELISA; H-296 coated at 25 ug/mL in 0.2 M acetate buffer pH 5.0; HRP-labeled FNH3-8, ABTS
# [17] = molecular target: H-296, a polypeptide comprising a heparin binding domain and a CS-1 domain of fibronectin (Homo sapiens (Human)) (UniProt P02751); experiment: ELISA; H-296 coated at 25 ug/mL in 0.2 M acetate buffer pH 5.6; HRP-labeled FNH3-8, ABTS
# [18] = molecular target: H-296, a polypeptide comprising a heparin binding domain and a CS-1 domain of fibronectin (Homo sapiens (Human)) (UniProt P02751); experiment: ELISA; H-296 coated at 50 ug/mL in 0.2 M acetate buffer pH 4.4; HRP-labeled FNH3-8, ABTS
# [19] = molecular target: H-296, a polypeptide comprising a heparin binding domain and a CS-1 domain of fibronectin (Homo sapiens (Human)) (UniProt P02751); experiment: ELISA; H-296 coated at 50 ug/mL in 0.2 M acetate buffer pH 5.6; HRP-labeled FNH3-8, ABTS
# [20] = molecular target: H-296, a polypeptide comprising a heparin binding domain and a CS-1 domain of fibronectin (Homo sapiens (Human)) (UniProt P02751); experiment: ELISA; H-296 coated at 25 ug/mL in 0.2 M phosphate buffer pH 6.2; HRP-labeled FNH3-8, ABTS
# [21] = molecular target: H-296, a polypeptide comprising a heparin binding domain and a CS-1 domain of fibronectin (Homo sapiens (Human)) (UniProt P02751); experiment: ELISA; H-296 coated at 50 ug/mL in 0.2 M phosphate buffer pH 6.2; HRP-labeled FNH3-8, ABTS
# [22] = molecular target: H-296, a polypeptide comprising a heparin binding domain and a CS-1 domain of fibronectin (Homo sapiens (Human)) (UniProt P02751); experiment: ELISA; H-296 coated at 50 ug/mL in 0.2 M phosphate buffer pH 7.4; HRP-labeled FNH3-8, ABTS
# [23] = molecular target: H-296, a polypeptide comprising a heparin binding domain and a CS-1 domain of fibronectin (Homo sapiens (Human)) (UniProt P02751); experiment: ELISA as in Example 34; H-296 coated at 25 ug/mL in pH 5.6 acetate buffer; HRP-labeled FNH3-8
# [24] = molecular target: H-296, a polypeptide comprising a heparin binding domain and a CS-1 domain of fibronectin (Homo sapiens (Human)) (UniProt P02751); experiment: ELISA as in Example 34; H-296 coated at 50 ug/mL in pH 5.6 acetate buffer; HRP-labeled FNH3-8
# [25] = molecular target: H-296, a polypeptide comprising a heparin binding domain and a CS-1 domain of fibronectin (Homo sapiens (Human)) (UniProt P02751); experiment: ELISA as in Example 34; H-296 coated at 200 ug/mL in pH 5.6 acetate buffer; HRP-labeled FNH3-8
# [26] = molecular target: H-296, a polypeptide comprising a heparin binding domain and a CS-1 domain of fibronectin (Homo sapiens (Human)) (UniProt P02751); experiment: ELISA as in Example 34; H-296 coated at 6.25 ug/mL in pH 5.6 acetate buffer; HRP-labeled FNH3-8
# Chain of H296-H271 (chain, as listed by the source limits assumed): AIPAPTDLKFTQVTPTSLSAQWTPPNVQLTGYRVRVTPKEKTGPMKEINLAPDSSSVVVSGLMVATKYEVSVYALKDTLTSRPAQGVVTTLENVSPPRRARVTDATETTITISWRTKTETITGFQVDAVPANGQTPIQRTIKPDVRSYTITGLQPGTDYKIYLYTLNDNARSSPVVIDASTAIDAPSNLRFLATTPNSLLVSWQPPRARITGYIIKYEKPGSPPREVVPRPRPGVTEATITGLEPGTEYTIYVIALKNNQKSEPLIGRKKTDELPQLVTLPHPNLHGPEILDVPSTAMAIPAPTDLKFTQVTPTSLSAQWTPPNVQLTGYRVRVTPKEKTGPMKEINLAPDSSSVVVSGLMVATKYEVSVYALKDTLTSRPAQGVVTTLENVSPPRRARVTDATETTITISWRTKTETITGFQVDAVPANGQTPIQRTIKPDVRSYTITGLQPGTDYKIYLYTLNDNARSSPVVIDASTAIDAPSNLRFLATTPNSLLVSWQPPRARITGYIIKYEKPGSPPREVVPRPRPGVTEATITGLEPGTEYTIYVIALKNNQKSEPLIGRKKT
substance,measurement,setting,value
FNH3-8 antibody (manufactured by TAKARA BIO INC.) labeled with HRP,405 nm (Found Value - Blank),[1],0.859
same,405 nm (Found Value - Blank),[2],0.448
same,405 nm (Found Value - Blank),[3],0.6
same,405 nm (Found Value - Blank),[4],0.594
same,405 nm (Found Value - Blank),[5],0.61
same,absorbance at 405 nm,[6],1.73
same,405 nm (Found Value - Blank),[7],0.186
same,405 nm (Found Value - Blank),[8],0.54
same,405 nm (Found Value - Blank),[9],0.965
same,405 nm (Found Value - Blank),[10],0.545
same,405 nm (Found Value - Blank),[11],0.743
same,405 nm (Found Value - Blank),[12],0.81
same,405 nm (Found Value - Blank),[13],0.924
same,405 nm (Found Value - Blank),[14],0.991
same,absorbance at 405 nm,[15],0.243
same,absorbance at 405 nm,[16],0.392
same,absorbance at 405 nm,[17],0.475
same,absorbance at 405 nm,[18],0.379
same,absorbance at 405 nm,[19],0.567
same,absorbance at 405 nm,[20],0.131
same,absorbance at 405 nm,[21],0.244
same,absorbance at 405 nm,[22],0.169
same,absorbance at 405 nm,[23],0.224
same,absorbance at 405 nm,[24],0.304
same,absorbance at 405 nm,[25],0.964
same,absorbance at 405 nm,[26],0.221
